Stoichiometry N data for two substances are collected here from publication PMC10155992.

As a reminder, the stoichiometry N is a count of units in the complex or per binding partner.

Experiment [1] concerns the target VP12, major outer capsid protein of mud crab reovirus (MCRV) (mud crab reovirus (MCRV)). The experiment can be described thus: cryo-EM structure; single-particle cryo-EM of purified MCRV virions, quiescent (qMCRV) and transcribing (tMCRV), in PBS; icosahedral, C1 and D5 reconstructions; atomic models built de novo.
Experiment [2] addresses VP3, inner capsid protein of mud crab reovirus (MCRV) (mud crab reovirus (MCRV)). The description is as above.

With “VP12, major outer capsid protein of mud crab reovirus (MCRV) (natural protein)”, in experiment [1], the stoichiometry N was 3.
Turning to “VP3, inner capsid protein of mud crab reovirus (MCRV) (natural protein)”, the stoichiometry N in experiment [2] is 2.
